The supplement of paper PMC12042874
± gives the uncertainty stated by the source.

Experiment: amyloid nucleation score (Sup35N fusion, yeast selection) (log enrichment); library NNK1; higher = more nucleation; inactive = no reads after selection
In short: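 Three technical output replicates were used for random libraries. Psi-negative yeast expressing peptides of 20 random codons fused to Sup35N were induced with 100 μM copper sulfate for 24 hours and grown 7 days at 30°C on medium lacking adenine and uracil, and input and output plasmid inserts were Illumina-sequenced, excluding sequences with under 100 input reads. The nucleation score is the DiMSum log enrichment of output over input reads, centred on the mode score of non-aggregating sequences.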

Row | Substance | amyloid nucleation score
1 | NVYSIYIINYMAYKVFWDMI | -0.116 ± 0.29
2 | RTELPHFFRVFAHRFACSGD | 1.31 ± 0.93
3 | INYFQDD | -0.727 ± 1.4
4 | FRFSHRLFLWPKYFSIFKNS | 0.37 ± 0.35
5 | HCILHKANFRGFTHSSYEVG | 4.68 ± 0.1
6 | EGSQLSPAWFGYRDDGFTTM | 0.904 ± 1
7 | MCPSIQCYNNYILLQRSVIR | 7.08 ± 0.073
8 | MMPFYHSNSR | -1.38 ± 1.1
9 | VLSVGQESTMISESGFNTEN | -0.001 ± 0.55
10 | FRYVDALHDRSSYIQIGKRI | -0.423 ± 1.5
11 | YVKISVLGSKIYNIS | 5.38 ± 0.093
12 | VNHCMMHEYLGGLLSSVIG | 0.773 ± 0.24
13 | TQVWKPLHKTSLHYSDREVS | -0.111 ± 0.38
14 | FEHWCFRLPCVKDESCWD | 0.821 ± 0.8
15 | TKLKNWGLNLGMASGNQSDR | -0.725 ± 0.45
16 | SYLMY | -0.533 ± 0.9
17 | KISITSTIVFS | 1.32 ± 0.33
18 | FAWGREVRLEIEY | 0.371 ± 0.31
19 | NGRENWSDETGSMFECALYS | 1.28 ± 0.44
20 | NTLYYRSFRAIQLPGGENQN | -1.09 ± 1.9
21 | LTGCLNEYGVSNFMEVRVFR | -1.88 ± 2.7
22 | HGAMLSSM | -2.06 ± 2.4
23 | LVALPMWIF | 0.402 ± 0.41
24 | TIKEGSLITTDAKYLMGMMK | 2.03 ± 0.19
25 | FLSVASFTRI | 0.246 ± 0.32
26 | LHDQCLAHGQWCNTWGK | -0.022 ± 0.39

Row | Substance | amyloid nucleation score
27 | ISTPKDISSPKSFWNIFFGT | 4.65 ± 0.069
28 | SRVSNCISLVMYKAKLCSIR | 0.644 ± 0.5
29 | QWAFYVNYLTSRDYFNIFTR | 1.05 ± 0.16
30 | NNLVFHGSKHNIKVRRMEMG | -1.14 ± 2.7
31 | IEAYYGIPDVKHMLVYLRQD | -0.284 ± 0.7
32 | GLFKICYLVT | 0.408 ± 0.34
33 | SQRSMRRRRVRVIKDARYNW | 0.224 ± 0.48
34 | YCGGY | 2.9 ± 0.087
35 | LNSSIYDLSHTVAGCHPALT | -0.293 ± 1.3
36 | QFILRDNVVRRMKFRGVPNF | 2.22 ± 0.55
37 | IRSFPTV | 0.075 ± 0.47
38 | RKASYLSAVNMQFRESFLFW | -0.209 ± 0.28
39 | HWLTV | -1.27 ± 1.6
40 | TFASTS | 0.002 ± 0.36
41 | SRLMLFQIFDAKQIDVNDM | 5.03 ± 0.071
42 | SLLSYMFQGDDVKCHGSAVL | 1.01 ± 0.76
43 | AWFSISTRRIAIAWVILPCN | -0.398 ± 0.4
44 | VCYSLSLNISFSFRNVVVRS | 0.899 ± 0.58
45 | LWLRSLIVYYNSFVDMGGCA | 0.549 ± 0.3
46 | GTVYWIYGGINLSAVLSSRS | 3.44 ± 0.1
47 | PSQRNKIPGMLSLYY | -0.193 ± 0.57
48 | PIFMCHSFFQAIICWLSSHL | inactive
49 | YINLVLGFSYVFLLGLANRM | -0.773 ± 0.24
50 | RSRIYCGFNRPTCEGFSRLS | 2.63 ± 0.11
51 | FIAIDLS | 1.31 ± 0.45
52 | TRSVWIEDRVTRAARFKGQR | -0.116 ± 0.47

Row | Substance | amyloid nucleation score
53 | SEVCPSSIKR | -0.067 ± 0.49
54 | RVLATKRRLQKRLHESVLLA | 0.34 ± 1.1
55 | KFIVMIE | 0.386 ± 0.22
56 | CSGLNVSLSRRQVVVLSV | -0.632 ± 0.33
57 | YWTSIHSLNTSIP | -0.229 ± 0.62
58 | DSLWLRYVFMRTVLLMVHVR | inactive
59 | YTVMVVI | 1.44 ± 0.4
60 | EFELRASNLPFNVFPIGFSN | 1.07 ± 0.67
61 | FRSGFSLKARSVQMCDRF | 1.26 ± 0.42
62 | RFWSAL | -0.148 ± 0.92
63 | VATPISLGFPPWTSNVHAHT | inactive
64 | SSYFMVYYQRVTSCFMVGFL | -0.865 ± 0.48
65 | FRFMVLGLVSLGIGV | -0.59 ± 0.62
66 | LPGVFAPCSDYLMVMDVGHS | -0.409 ± 0.35
67 | HKHRKPSLNRVPGVGW | -0.78 ± 0.43
68 | LTGRVFRSYRYGCTGQIAVD | -0.624 ± 0.56
69 | LYIGIPYVGVWNL | 0.282 ± 1.2
70 | TEGLKVTLIHTTPLFCP | 0.239 ± 0.42
71 | FHVVSFQGETCDHRIGRIVY | 0.002 ± 0.33
72 | SKWYSDQT | inactive
73 | IVVGRC | 0.144 ± 0.39
74 | CSKIVYPCSTFTSLFYLFLP | -0.614 ± 0.8
75 | HSSPLGLLWGAPARRRYCRR | -0.32 ± 0.87
76 | LNYSWDWLVVCIVANVRTYD | 2.22 ± 0.12
77 | KTSVL | -0.616 ± 0.39
78 | CRSSVLRSVCINNLSKCSLV | inactive

Row | Substance | amyloid nucleation score
79 | SKQFQASFHRVYSSVFSGWH | 0.669 ± 0.38
80 | LISFEHEFKRCHCALVTWT | -0.048 ± 0.3
81 | VSSFLLRSFRKCRPLCYIVR | 3.89 ± 0.085
82 | DCGDNRLTTEGQKSSSPVAD | 0.378 ± 0.3
83 | TRSDQPTILTSLYLERNYSP | -0.321 ± 0.56
84 | PELAGRLSVRDLLW | 0.059 ± 0.47
85 | CAVQQYRNRRGNM | 0.152 ± 0.65
86 | AGVCRNNSPLIHTFNF | 0.728 ± 0.64
87 | GFFDSCLEMFTLSTYFCTFY | 2.86 ± 0.096
88 | VSLCVSFFFYRSAVITVYAH | 0.282 ± 0.58
89 | PEVSIFFLFLGMVYLMWQWV | -0.839 ± 0.7
90 | VGSCCNQ | 7.591 ± 0.046
91 | YVMDYSD | 0.096 ± 0.61
92 | NLLGYVNVQVGAVYTGNNRL | 7.602 ± 0.066
93 | LFSNTNK | inactive
94 | SLSTGIAFINLAACVYSKLT | 2.85 ± 0.18
95 | NLFVKFLNSRRCINFMTMFD | -0.01 ± 0.77
96 | VWEFD | -0.537 ± 0.42
97 | SLECLALTFVGYVTGRLMDL | -1.02 ± 1.7
98 | NIRKPNLNTMTDRLDWSVQS | -0.102 ± 0.47
99 | WRGCVNFCEKKPGVGVSSV | 0.076 ± 0.55
100 | VLDGVNNNILLCLISRWGVL | 4.46 ± 0.079
101 | LCIWYICRT | 3.2 ± 0.16
102 | FLNMASIFNFLHTNRF | 0.054 ± 1.2
103 | ENVCFLTKM | 0.423 ± 0.26
104 | GERDACYPKSLD | -1.06 ± 2.4

Row | Substance | amyloid nucleation score
105 | GASAEEIYCQP | -0.513 ± 0.34
106 | LRMFFDSTTILKLYERSWNI | 0.777 ± 1.2
107 | VDRLAEMHTLEWARSVRLSV | 0.55 ± 0.92
108 | TASHFGNKWV | 0.352 ± 0.32
109 | LDQRKGPFSNSALRGHSWCN | -0.506 ± 0.44
110 | FANLVYGQLRVNDTLVSCT | -0.044 ± 0.33
111 | KDVFY | -0.294 ± 0.5
112 | GKVIQHG | -0.579 ± 1.7
113 | KLRSGCLDYIVIDLWTF | -0.439 ± 0.39
114 | GDHFPEDGYSLEIADR | -0.737 ± 1.2
115 | TRLSRERINRDWEREGCLTP | 0.798 ± 0.81
116 | LTISTYSCWGEF | 0.456 ± 0.66
117 | ISIQSLRLSSSSWNLTLHCG | 3.25 ± 0.097
118 | TSTSIGRVQCLYDSWRRTAW | 0.73 ± 0.62
119 | RRMGKSFKAYTDGVQRKILS | 0.593 ± 0.68
120 | AVSLRWCTGINGADKSCAYQ | 1.19 ± 0.43
121 | ALLIPINTLGDN | 0.605 ± 0.7
122 | AVEVLGPCRNLRVWSNLDLG | -0.072 ± 0.74
123 | LLFCQNDSGVVRLMLTVFLR | -0.791 ± 1.2
124 | IKMRWISFKCLPYCMFKNRI | -0.355 ± 0.35
125 | LLHCKVICRRCCVIWSSCSI | 2.09 ± 0.46
126 | SLYVKWSQILLPLVLYVWYY | 0.232 ± 0.45
127 | RSMYVSRRPIVPPLYIGFWE | 0.166 ± 0.48
128 | QCAWCTRSVNNMYQTLEYHI | 6.151 ± 0.049
